B1: EZ-19: C277S-EPEPE-link1-EPEPE-CXH201-H6, SEQ ID NO: 443 (protein)
chain: MAFFDLPLEELKKYRPERYEEKDFDEFWEETLAESEKFPLDPVFERMESHLKTVEAYDVTFSGYRGQRIKGWLLVPKLEEEKLPCVVQYIGYNGGRGFPHDWLFWPSMGYICFVMDTRGQGSGWLKGDTPDYPEGPVDPQYPGFMTRGILDPRTYYYRRVFTDAVRAVEAAASFPQVDQERIVIAGGSQGGGIALAVSALSKKAKALLCDVPFLCHFRRAVQLVDTHPYAEITNFLKTHRDKEEIVFRTLSYFDGVNFAARAKIPALFSVGLMDNISPPSTVFAAYNYYAGPKEIRIYPYNNHEGGGSFQAVEQVKFLKKLFEKGEPEPEGPGSGGAGSPGSAGGPGSEPEPEWKTKKILLSRTRRIMRQVVRSVMHKIWHHHHHH
B2: EZ-25: C277S-EPEPE-Link1-EPEPE-CXHG102-H6, SEQ ID NO: 449 (protein)
chain: MAFFDLPLEELKKYRPERYEEKDFDEFWEETLAESEKFPLDPVFERMESHLKTVEAYDVTFSGYRGQRIKGWLLVPKLEEEKLPCVVQYIGYNGGRGFPHDWLFWPSMGYICFVMDTRGQGSGWLKGDTPDYPEGPVDPQYPGFMTRGILDPRTYYYRRVFTDAVRAVEAAASFPQVDQERIVIAGGSQGGGIALAVSALSKKAKALLCDVPFLCHFRRAVQLVDTHPYAEITNFLKTHRDKEEIVFRTLSYFDGVNFAARAKIPALFSVGLMDNISPPSTVFAAYNYYAGPKEIRIYPYNNHEGGGSFQAVEQVKFLKKLFEKGEPEPEPEGPGSGGAGSPGSAGGPGSEPEPEPELRFLARRFLKLRRARKWWNAWKVWVTRHHHHHH
B3: EZ-20: C277S-EPEPEPEPEPE-link1-CXH201-H6, SEQ ID NO: 444 (protein)
chain: MAFFDLPLEELKKYRPERYEEKDFDEFWEETLAESEKFPLDPVFERMESHLKTVEAYDVTFSGYRGQRIKGWLLVPKLEEEKLPCVVQYIGYNGGRGFPHDWLFWPSMGYICFVMDTRGQGSGWLKGDTPDYPEGPVDPQYPGFMTRGILDPRTYYYRRVFTDAVRAVEAAASFPQVDQERIVIAGGSQGGGIALAVSALSKKAKALLCDVPFLCHFRRAVQLVDTHPYAEITNFLKTHRDKEEIVFRTLSYFDGVNFAARAKIPALFSVGLMDNISPPSTVFAAYNYYAGPKEIRIYPYNNHEGGGSFQAVEQVKFLKKLFEKGEPEPEPEPEPEGPGSGGAGSPGSAGGPGSWKTKKILLSRTRRIMRQVVRSVMHKIWHHHHHH
B4: EZ-24: C277S-…-Link1-CXH104-H6, SEQ ID NO: 448 (protein)
chain: MAFFDLPLEELKKYRPERYEEKDFDEFWEETLAESEKFPLDPVFERMESHLKTVEAYDVTFSGYRGQRIKGWLLVPKLEEEKLPCVVQYIGYNGGRGFPHDWLFWPSMGYICFVMDTRGQGSGWLKGDTPDYPEGPVDPQYPGFMTRGILDPRTYYYRRVFTDAVRAVEAAASFPQVDQERIVIAGGSQGGGIALAVSALSKKAKALLCDVPFLCHFRRAVQLVDTHPYAEITNFLKTHRDKEEIVFRTLSYFDGVNFAARAKIPALFSVGLMDNISPPSTVFAAYNYYAGPKEIRIYPYNNHEGGGSFQAVEQVKFLKKLFEKGEPEPEPEGPGSGGAGSPGSAGGPGSRMLSRILRMFVRILKRERLSQVRGLFVHHHHHH
B5: EZ-23: C277S-EPEPE-Link1-EPEPE-CXH104-H6, SEQ ID NO: 447 (protein)
chain: MAFFDLPLEELKKYRPERYEEKDFDEFWEETLAESEKFPLDPVFERMESHLKTVEAYDVTFSGYRGQRIKGWLLVPKLEEEKLPCVVQYIGYNGGRGFPHDWLFWPSMGYICFVMDTRGQGSGWLKGDTPDYPEGPVDPQYPGFMTRGILDPRTYYYRRVFTDAVRAVEAAASFPQVDQERIVIAGGSQGGGIALAVSALSKKAKALLCDVPFLCHFRRAVQLVDTHPYAEITNFLKTHRDKEEIVFRTLSYFDGVNFAARAKIPALFSVGLMDNISPPSTVFAAYNYYAGPKEIRIYPYNNHEGGGSFQAVEQVKFLKKLFEKGEPEGPGSGGAGSPGSAGGPGSEPERMLSRILRMFVRILKRERLSQVRGLFVHHHHHH
B6: EZ-21: C277S-EPEPE-link1-EPEPE-CXHG2-H6, SEQ ID NO: 445 (protein)
chain: MAFFDLPLEELKKYRPERYEEKDFDEFWEETLAESEKFPLDPVFERMESHLKTVEAYDVTFSGYRGQRIKGWLLVPKLEEEKLPCVVQYIGYNGGRGFPHDWLFWPSMGYICFVMDTRGQGSGWLKGDTPDYPEGPVDPQYPGFMTRGILDPRTYYYRRVFTDAVRAVEAAASFPQVDQERIVIAGGSQGGGIALAVSALSKKAKALLCDVPFLCHFRRAVQLVDTHPYAEITNFLKTHRDKEEIVFRTLSYFDGVNFAARAKIPALFSVGLMDNISPPSTVFAAYNYYAGPKEIRIYPYNNHEGGGSFQAVEQVKFLKKLFEKGEPEPEGPGSGGAGSPGSAGGPGSEPEPEPLWRRITKRKLVRPVATLMWYWFTSKRHHHHHH
B7: EZ-22: C277S-EPEPEPEPEPE-Link1-CXHG2-H6, SEQ ID NO: 446 (protein)
chain: MAFFDLPLEELKKYRPERYEEKDFDEFWEETLAESEKFPLDPVFERMESHLKTVEAYDVTFSGYRGQRIKGWLLVPKLEEEKLPCVVQYIGYNGGRGFPHDWLFWPSMGYICFVMDTRGQGSGWLKGDTPDYPEGPVDPQYPGFMTRGILDPRTYYYRRVFTDAVRAVEAAASFPQVDQERIVIAGGSQGGGIALAVSALSKKAKALLCDVPFLCHFRRAVQLVDTHPYAEITNFLKTHRDKEEIVFRTLSYFDGVNFAARAKIPALFSVGLMDNISPPSTVFAAYNYYAGPKEIRIYPYNNHEGGGSFQAVEQVKFLKKLFEKGEPEPEPEPEPEGPGSGGAGSPGSAGGPGSPLWRRITKRKLVRPVATLMWYWFTSKRHHHHHH
B8: EZ-26: C277S-EPEPEPEPEPE-Link1-CXHG102-H6, SEQ ID NO: 450 (protein)
chain: MAFFDLPLEELKKYRPERYEEKDFDEFWEETLAESEKFPLDPVFERMESHLKTVEAYDVTFSGYRGQRIKGWLLVPKLEEEKLPCVVQYIGYNGGRGFPHDWLFWPSMGYICFVMDTRGQGSGWLKGDTPDYPEGPVDPQYPGFMTRGILDPRTYYYRRVFTDAVRAVEAAASFPQVDQERIVIAGGSQGGGIALAVSALSKKAKALLCDVPFLCHFRRAVQLVDTHPYAEITNFLKTHRDKEEIVFRTLSYFDGVNFAARAKIPALFSVGLMDNISPPSTVFAAYNYYAGPKEIRIYPYNNHEGGGSFQAVEQVKFLKKLFEKGEPEPEPEPEPEPEPEGPGSGGAGSPGSAGGPGSLRFLARRFLKLRRARKWWNAWKVWVTRHHHHHH

Tests used:
[1] = Peracetic acid from C277S CXH fusions exposed to hydroxyapatite discs (Example 9); settings: no enzyme control subtracted; for Peracetic acid (ppm) Exposed to Hydroxyapatite, Disc: disc-bound enzyme, 100 mM triacetin, 100 mM H2O2, 30 min, 37° C.; for Peracetic acid (ppm) Exposed to Hydroxyapatite, Supernatant: unbound enzyme in supernatant after 10 μM enzyme on disc
[2] = Peracetic acid generated in solution by C277S CXH fusions (Example 9); settings: 0.5 μM enzyme, sarkosyl buffer, 100 mM triacetin, 100 mM H2O2, pH 7.2, 10 min, 37° C.

Molecule | Peracetic acid (ppm) Exposed to Hydroxyapatite, Disc [1] [ppm] | Peracetic acid (ppm) Exposed to Hydroxyapatite, Supernatant [1] [ppm] | Peracetic acid (ppm) In Solution [2] [ppm]
B1 | 3136 | 1665 | 4088
B2 | 1791 | 1029 | 1703
B3 | 2795 | 1229 | 2265
B4 | 3453 | 719 | 2951
B5 | 4463 | 1712 | 2212
B6 | 3109 | 1581 | 2764
B7 | 2495 | 477 | 2305
B8 | 1849 | 1636 | 2273
